Our source for the Km, kcat and kcat/Km values is US20190029975A1, “TOCOPHEROL AND TOCOTRIENOL QUINONE DERIVATIVES FOR INCREASING THIOSULFATE LEVELS OR DECREASING HYDROGEN SULFIDE LEVELS” (BIOELECTRON TECHNOLOGY CORPORATION, priority 2016, published 2019).

Substrate in this series: CC(C)=CCC/C(C)=C/CC/C(C)=C/CC[C@@](C)(O)CCC1=C(C)C(=O)C(C)=C(C)C1=O
The experiment in a line: Kinetic parameters of EPI-743 with SQOR. The format is biochemical, human. The note with it: other: 200 micromolar Na2S, 2 mM Na2SO3, pH 7.5, reduced oxygen (<1000 ppm), 30.0 °C. An excerpt:
Human sulfide:quinone oxidoreductase (SQOR) protein was expressed and purified according to the method described in Jackson, M.R., et al. “Human Sulfide:Quinone Oxidoreductase Catalyzes the First Step in Hydrogen Sulfide Metabolism and Produces a Sulfane Sulfur Metabolite”, Biochemistry, Publication Date (Web): 1 Aug 2012, with the following exceptions: (1) a chaperone plasmid set (Plasmid pG-KJE8, plasmid #1 in catalog no. 3340) from Takara Bio Inc. (Japan) was used; (2) DHPC detergent was replaced with the following: 1.0% (w/v) CHAPS, 0.5% deoxycholate, or 1.0% octylmaltoside. The detergent was used in the initial lysis buffer, and removed in the IMAC purification step (no detergents in the storage conditions); (3) the ion-exchange (Q-sepharose) chromatography step was not used in the purification. The final SQOR protein contained amino acids 42-450 of the human SQOR protein.
Target protein was purified on IMAC to ≥90% purity (on Ni resin). Target protein was stored in 25 mM Tris pH 7.5, 150mM NaCl, 2 mM DTT 20% glycerol.
EPI-743 was assayed for activity with SQOR. […]
Briefly, SQOR enzyme, compound, inorganic sulfide (200 micromolar Na2S) and a sulfur acceptor (2 mM Na2SO3) were brought together. The reduction of the quinone substrate to hydroquinone product in the presence of sulfide ion, sulfur acceptor and SQOR enzyme was monitored by the decrease in quinone concentration over time, by observing the UV signal diagnostic for the specific quinone (See Table 3):
General assay conditions: Assays were performed in 100 mM Tris, pH 7.5, 0.5 mM EDTA. SQOR was included at approximately 5 nM, as estimated by total protein concentration determined by Bradford assay with BSA as standard and the estimated purity of SQOR from SDS-PAGE. […]
The kinetic parameters of compounds with SQOR were determined by varying the concentration of the compound over a suitable range and interrogating the impact of that variation on the enzymatic rate.
The parameters kcat and Km, for example, can be determined by nonlinear fitting of the rate data to the Michaelis-Menten equation: […]

B1: Human sulfide:quinone oxidoreductase (SQOR) (Homo sapiens) (protein)
chain: NHYEVLVLGGGSGGITMAARMKRKVGAENVAIVEPSERHFYQPIWTLVGAGAKQLSSSGRPTASVIPSGVEWIKARVTELNPDKNCIHTDDDEKISYRYLIIALGIQLDYEKIKGLPEGFAHPKIGSNYSVKTVEKTWKALQDFKEGNAIFTFPNTPVKCAGAPQKIMYLSEAYFRKTGKRSKANIIFNTSLGAIFGVKKYADALQEIIQERNLTVNYKKNLIEVRADKQEAVFENLDKPGETQVISYEMLHVTPPMSPPDVLKTSPVADAAGWVDVDKETLQHRRYPNVFGIGDCTNLPTSKTAAAVAAQSGILDRTISVIMKNQTPTKKYDGYTSCPLVTGYNRVILAEFDYKAEPLETFPFDQSKERLSMYLMKADLMPFLYWNMMLRGYWGGPAFLRKLFHLGMS
notes: The final SQOR protein contained amino acids 42-450 of the human SQOR protein; His tag (inferred from IMAC purification on Ni resin); made in house; E. coli is inferred from the Takara chaperone plasmid pG-KJE8 and from own knowledge of the cited Jackson et al. 2012 method
In the case of B1, the Km came to 200 µM, the kcat is 76 s⁻¹ and the catalytic efficiency (kcat/Km) turned out to be 400000 M⁻¹ s⁻¹.

The term Km denotes the concentration of substrate that gives half-maximal velocity. By kcat is commonly meant the maximal rate divided by the concentration of active sites. One may read the kcat/Km as the turnover number divided by the Michaelis constant.
